These sequences were tested on Escherichia coli TOP10 (assay: shrunken log2 fold change of peptide-encoding DNA abundance (4.5 h post-induction vs induction); higher = less antimicrobial activity (less host growth inhibition)). Settings: time post-induction: 4.5 h; library: site-saturation at positions 5, 18, 19, 20.
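Further: peptides expressed intracellularly from a pBAD plasmid library in pooled LB shake-flask culture, induced with 0.3% L-arabinose, DNA abundance read by NGS, three biological replicates, DESeq2 with apeglm shrinkage.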

| Sequence | shrunken log2 fold change |
| --- | --- |
| RRIRCRPPRLPRPRPRPSMTPRP | -0.178 |
| RRIRLRPPRLPRPRPRPTTPPRP | 0.138 |
| RRIRHRPPRLPRPRPRPERDPRP | 0.155 |
| RRIRARPPRLPRPRPRPIPSPRP | -0.156 |
| RRIRARPPRLPRPRPRPHNVPRP | -0.0333 |
| RRIRHRPPRLPRPRPRPLMEPRP | -0.348 |
| RRIRYRPPRLPRPRPRPLDVPRP | 0.0153 |
| RRIRDRPPRLPRPRPRPNLMPRP | 0.0913 |
| RRIRWRPPRLPRPRPRPFNYPRP | -0.533 |
| RRIRSRPPRLPRPRPRPYGCPRP | -0.248 |
| RRIRNRPPRLPRPRPRPDWMPRP | -0.0128 |
| RRIRMRPPRLPRPRPRPQQLPRP | -0.0103 |
| RRIRKRPPRLPRPRPRPVFAPRP | 2.02 |
| RRIRVRPPRLPRPRPRPLLKPRP | 0.0167 |
| RRIRWRPPRLPRPRPRPKSYPRP | 0.0188 |
| RRIRKRPPRLPRPRPRPFSVPRP | 0.034 |
| RRIRPRPPRLPRPRPRPYENPRP | -0.66 |
| RRIRERPPRLPRPRPRPLSIPRP | -0.367 |
| RRIRCRPPRLPRPRPRPADCPRP | -0.0557 |
| RRIRARPPRLPRPRPRPIMPPRP | 0.167 |
| RRIRERPPRLPRPRPRPHIMPRP | -0.652 |
| RRIRIRPPRLPRPRPRPGEYPRP | -0.161 |
| RRIRYRPPRLPRPRPRPFKLPRP | -0.0907 |
| RRIRKRPPRLPRPRPRPWMKPRP | -0.0454 |
| RRIRARPPRLPRPRPRPWFGPRP | 0.118 |

| Sequence | shrunken log2 fold change |
| --- | --- |
| RRIRHRPPRLPRPRPRPNYIPRP | -1.35 |
| RRIRRRPPRLPRPRPRPHHLPRP | -0.0855 |
| RRIRARPPRLPRPRPRPIQIPRP | -0.103 |
| RRIRPRPPRLPRPRPRPYLSPRP | -0.509 |
| RRIRLRPPRLPRPRPRPGSTPRP | -0.381 |
| RRIRSRPPRLPRPRPRPKQRPRP | 0.161 |
| RRIRMRPPRLPRPRPRPLNHPRP | -0.0957 |
| RRIRDRPPRLPRPRPRPEPMPRP | 0.035 |
| RRIRARPPRLPRPRPRPARNPRP | 0.364 |
| RRIRCRPPRLPRPRPRPDGWPRP | 0.378 |
| RRIRARPPRLPRPRPRPCQKPRP | 0.431 |
| RRIRQRPPRLPRPRPRPFVRPRP | -0.0842 |
| RRIRQRPPRLPRPRPRPYLSPRP | 0.00493 |
| RRIRTRPPRLPRPRPRPQDRPRP | -0.0332 |
| RRIRVRPPRLPRPRPRPKMLPRP | -0.13 |
| RRIRWRPPRLPRPRPRPHPRPRP | 0.451 |
| RRIRERPPRLPRPRPRPASYPRP | -0.0425 |
| RRIRWRPPRLPRPRPRPRIPPRP | 0.0219 |
| RRIRFRPPRLPRPRPRPFKTPRP | -0.164 |
| RRIRRRPPRLPRPRPRPIKKPRP | 0.907 |
| RRIRHRPPRLPRPRPRPGPFPRP | -0.225 |
| RRIRHRPPRLPRPRPRPWRKPRP | -0.00968 |
| RRIRERPPRLPRPRPRPSRRPRP | -0.432 |
| RRIRWRPPRLPRPRPRPWGAPRP | 0.297 |
| RRIRTRPPRLPRPRPRPYREPRP | -0.196 |

| Sequence | shrunken log2 fold change |
| --- | --- |
| RRIRMRPPRLPRPRPRPVVGPRP | 0.448 |
| RRIRWRPPRLPRPRPRPQVHPRP | 0.0992 |
| RRIRPRPPRLPRPRPRPKRWPRP | 0.441 |
| RRIRNRPPRLPRPRPRPSMIPRP | -0.427 |
| RRIRWRPPRLPRPRPRPRFWPRP | 0.455 |
| RRIRHRPPRLPRPRPRPWMAPRP | -0.347 |
| RRIRRRPPRLPRPRPRPPRPPRP | 1.01 |
| RRIRTRPPRLPRPRPRPSFWPRP | 0.277 |
| RRIRRRPPRLPRPRPRPVIMPRP | 0.189 |
| RRIRMRPPRLPRPRPRPSFHPRP | -0.432 |
| RRIRWRPPRLPRPRPRPNCTPRP | 0.0251 |
| RRIRYRPPRLPRPRPRPRGEPRP | -0.101 |
| RRIRCRPPRLPRPRPRPCEKPRP | 0.0534 |
| RRIRMRPPRLPRPRPRPVLYPRP | -0.0553 |
| RRIRIRPPRLPRPRPRPCKEPRP | 1.82 |
| RRIRLRPPRLPRPRPRPEDIPRP | -0.539 |
| RRIRCRPPRLPRPRPRPNHNPRP | -0.975 |
| RRIRVRPPRLPRPRPRPRARPRP | 0.737 |
| RRIRLRPPRLPRPRPRPCLYPRP | -0.247 |
| RRIRLRPPRLPRPRPRPEMVPRP | 0.201 |
| RRIRRRPPRLPRPRPRPDYGPRP | -0.28 |
| RRIRVRPPRLPRPRPRPVLEPRP | -0.0482 |
| RRIRHRPPRLPRPRPRPHFYPRP | -0.139 |
| RRIRRRPPRLPRPRPRPAGRPRP | 0.41 |
| RRIRIRPPRLPRPRPRPDLPPRP | -0.334 |

| Sequence | shrunken log2 fold change |
| --- | --- |
| RRIRYRPPRLPRPRPRPGGVPRP | -0.332 |
| RRIRHRPPRLPRPRPRPRMIPRP | -8.79e-05 |
| RRIRDRPPRLPRPRPRPHGTPRP | 0.0175 |
| RRIRQRPPRLPRPRPRPYQTPRP | -0.421 |
| RRIRIRPPRLPRPRPRPNEAPRP | 0.135 |
| RRIRARPPRLPRPRPRPTWFPRP | 0.225 |
| RRIRLRPPRLPRPRPRPWEPPRP | 0.0843 |
| RRIRARPPRLPRPRPRPKGLPRP | 0.433 |
| RRIRWRPPRLPRPRPRPDNCPRP | -0.015 |
| RRIRGRPPRLPRPRPRPVQAPRP | 0.891 |
| RRIRMRPPRLPRPRPRPTGDPRP | 1.3 |
| RRIRMRPPRLPRPRPRPFPAPRP | 0.426 |
| RRIRTRPPRLPRPRPRPHMNPRP | -0.547 |
| RRIRERPPRLPRPRPRPVYVPRP | -1.11 |
| RRIRGRPPRLPRPRPRPTQKPRP | 1.22 |
| RRIRTRPPRLPRPRPRPFFNPRP | -0.582 |
| RRIRPRPPRLPRPRPRPYTVPRP | -0.947 |
| RRIRTRPPRLPRPRPRPCMYPRP | -0.183 |
| RRIRNRPPRLPRPRPRPYNCPRP | -0.385 |
| RRIRCRPPRLPRPRPRPHRAPRP | -0.096 |
| RRIRRRPPRLPRPRPRPRCSPRP | 0.152 |
| RRIRERPPRLPRPRPRPYFYPRP | -0.757 |
| RRIRPRPPRLPRPRPRPNSDPRP | -0.39 |
| RRIRIRPPRLPRPRPRPNHQPRP | -0.164 |
| RRIRNRPPRLPRPRPRPKLQPRP | 0.114 |

| Sequence | shrunken log2 fold change |
| --- | --- |
| RRIRYRPPRLPRPRPRPWCRPRP | -0.414 |
| RRIRMRPPRLPRPRPRPTTMPRP | 0.558 |
| RRIRYRPPRLPRPRPRPDPCPRP | -0.0185 |
| RRIRRRPPRLPRPRPRPIPGPRP | 0.292 |
| RRIRVRPPRLPRPRPRPAYGPRP | -0.473 |
| RRIRGRPPRLPRPRPRPLCIPRP | 0.366 |
| RRIRYRPPRLPRPRPRPVIVPRP | -0.877 |
| RRIRTRPPRLPRPRPRPYAGPRP | -0.14 |
| RRIRFRPPRLPRPRPRPVILPRP | -1 |
| RRIRVRPPRLPRPRPRPEVEPRP | -0.0626 |
| RRIRRRPPRLPRPRPRPNCTPRP | 0.00402 |
| RRIRIRPPRLPRPRPRPRMLPRP | -0.177 |
| RRIRPRPPRLPRPRPRPLDDPRP | 0.0437 |
| RRIRIRPPRLPRPRPRPWHPPRP | -0.383 |
| RRIRERPPRLPRPRPRPTLVPRP | -0.0681 |
| RRIRWRPPRLPRPRPRPTSLPRP | 0.0239 |
| RRIRGRPPRLPRPRPRPFCFPRP | 0.778 |
| RRIRKRPPRLPRPRPRPCAMPRP | 0.367 |
| RRIRGRPPRLPRPRPRPGTDPRP | 0.472 |
| RRIRVRPPRLPRPRPRPGIQPRP | 0.0729 |
| RRIRHRPPRLPRPRPRPTEVPRP | -0.0182 |
| RRIRTRPPRLPRPRPRPWVLPRP | -0.0462 |
| RRIRPRPPRLPRPRPRPPYFPRP | 0.0747 |
| RRIRIRPPRLPRPRPRPICSPRP | -0.118 |
| RRIRRRPPRLPRPRPRPPFKPRP | 0.321 |

| Sequence | shrunken log2 fold change |
| --- | --- |
| RRIRRRPPRLPRPRPRPQDQPRP | 0.168 |
| RRIRLRPPRLPRPRPRPCWEPRP | -0.197 |
| RRIRHRPPRLPRPRPRPLGGPRP | -0.0164 |
| RRIRIRPPRLPRPRPRPMAPPRP | -0.0415 |
| RRIRHRPPRLPRPRPRPMIFPRP | -0.251 |
| RRIRGRPPRLPRPRPRPGNQPRP | -0.0828 |
| RRIRHRPPRLPRPRPRPRPRPRP | 0.707 |
| RRIRDRPPRLPRPRPRPFRLPRP | -0.0192 |
| RRIRVRPPRLPRPRPRPQTYPRP | -0.647 |
| RRIRLRPPRLPRPRPRPWFFPRP | -0.155 |
| RRIRFRPPRLPRPRPRPCEQPRP | -0.00534 |
| RRIRGRPPRLPRPRPRPEIFPRP | 1.02 |
| RRIRPRPPRLPRPRPRPWKWPRP | 0.423 |
| RRIRERPPRLPRPRPRPCCRPRP | 0.0107 |
| RRIRARPPRLPRPRPRPPWAPRP | 0.576 |
| RRIRCRPPRLPRPRPRPNFRPRP | 0.0821 |
| RRIRIRPPRLPRPRPRPDLEPRP | -0.0323 |
| RRIRNRPPRLPRPRPRPVPDPRP | -0.0278 |
| RRIRRRPPRLPRPRPRPLKRPRP | 0.161 |
| RRIRHRPPRLPRPRPRPNEAPRP | 0.0232 |
| RRIRHRPPRLPRPRPRPCPGPRP | -0.541 |
| RRIRARPPRLPRPRPRPFSVPRP | -0.107 |
| RRIRIRPPRLPRPRPRPFLSPRP | -0.282 |
| RRIRFRPPRLPRPRPRPHYMPRP | -0.737 |
| RRIRIRPPRLPRPRPRPQIIPRP | -0.213 |
